Reference: US20140087995A1 (published 2014)
Numbered stars: 1 amine (or outer) side, 2 acyl side, 3 side chain; on linkers, the order of the positions; unused ones are H or OH. Bridge positions count the residues as written; N and C are the ends. Side chains are listed from the residue outwards. Ends that are not written are not given here. * marks the point of attachment. C20 diacid = O=C(O)CCCCCCCCCCCCCCCCCCC(=O)*; γGlu = O=C(O)[C@H](CCC(=O)[*:2])N[*:1]; AEEA = NCCOCCOCC(=O)O

T1: human calcitonin receptor (human, UniProt P30988 25-474)
T1 construct: whole, on cells; also called hCTR; hCT
T1 sequence (looked up): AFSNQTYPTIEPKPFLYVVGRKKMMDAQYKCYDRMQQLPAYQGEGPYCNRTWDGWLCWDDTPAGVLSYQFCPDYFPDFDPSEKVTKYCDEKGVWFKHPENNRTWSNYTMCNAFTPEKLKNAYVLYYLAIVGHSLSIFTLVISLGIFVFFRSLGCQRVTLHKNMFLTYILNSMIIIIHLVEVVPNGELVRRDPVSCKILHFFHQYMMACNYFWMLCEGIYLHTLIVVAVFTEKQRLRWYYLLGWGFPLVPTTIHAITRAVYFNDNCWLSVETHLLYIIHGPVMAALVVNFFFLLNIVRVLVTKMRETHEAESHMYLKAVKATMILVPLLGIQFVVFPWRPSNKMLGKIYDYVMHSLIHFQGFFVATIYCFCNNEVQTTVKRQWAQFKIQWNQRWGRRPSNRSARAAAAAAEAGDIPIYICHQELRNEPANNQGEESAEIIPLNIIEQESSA


How the values were obtained:
[1] = target: T1, human calcitonin receptor; assay: SPA radioligand competition (125I-calcitonin), membranes of BHK cells with human calcitonin receptor
Summary of the method: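 BHK hCTR membranes 35 ng/μL + SPA beads 0.05 mg/well; buffer 50 mM Hepes pH 7.4, 1 mM CaCl2, 5 mM MgCl₂, 0.1% OA, 0.02% Tween20. 120 min, 25° C., shaking. Scintillation count; IC50 by one-site binding competition.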

[2] = target: T1, human calcitonin receptor; assay: ratio of IC50 at human calcitonin receptor to IC50 at human amylin receptor (SPA competition assays)
Summary of the method: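 Competition binding by SPA uses membrane preparations (35 ng/μL final) in pH 7.4 Hepes buffer with 1 mM CaCl2 and 5 mM MgCl₂. Incubation lasts 120 min at 25° C, and IC₅₀ comes from one-site fitting.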

Binder	IC50 [1] [nM]	Ratio hCT/hAmylin binding [2]
K([AEEA-γGlu-C20 diacid])CNTATCATQRLAHFLRHSSPNFGAIPSSTNVGSNTY-NH2 (disulfide 2-7; N-terminus assumed; SMILES CC[C@H](C)[C@H](NC(=O)[C@H](C)NC(=O)CNC(=O)[C@H](Cc1ccccc1)NC(=O)[C@H](CC(N)=O)NC(=O)[C@@H]1CCCN1C(=O)[C@H](CO)NC(=O)[C@H](CO)NC(=O)[C@H](Cc1c[nH]cn1)NC(=O)[C@H](CCCNC(=N)N)NC(=O)[C@H](CC(C)C)NC(=O)[C@H](Cc1ccccc1)NC(=O)[C@H](Cc1c[nH]cn1)NC(=O)[C@H](C)NC(=O)[C@H](CC(C)C)NC(=O)[C@H](CCCNC(=N)N)NC(=O)[C@H](CCC(N)=O)NC(=O)[C@@H](NC(=O)[C@H](C)NC(=O)[C@@H]1CSSC[C@H](NC(=O)[C@@H](N)CCCCNC(=O)COCCOCCNC(=O)CC[C@H](NC(=O)CCCCCCCCCCCCCCCCCCC(=O)O)C(=O)O)C(=O)N[C@@H](CC(N)=O)C(=O)N[C@@H]([C@@H](C)O)C(=O)N[C@@H](C)C(=O)N[C@@H]([C@@H](C)O)C(=O)N1)[C@@H](C)O)C(=O)N1CCC[C@H]1C(=O)N[C@@H](CO)C(=O)N[C@@H](CO)C(=O)N[C@H](C(=O)N[C@@H](CC(N)=O)C(=O)N[C@H](C(=O)NCC(=O)N[C@@H](CO)C(=O)N[C@@H](CC(N)=O)C(=O)N[C@H](C(=O)N[C@@H](Cc1ccc(O)cc1)C(N)=O)[C@@H](C)O)C(C)C)[C@@H](C)O, also called compound 69)	8.68	65.3
K([AEEA-γGlu-C20 diacid])CNTATCATQRLASFLRHSSPNFGAIPSSTPVGSNTY-NH2 (disulfide 2-7; N-terminus assumed; SMILES CC[C@H](C)[C@H](NC(=O)[C@H](C)NC(=O)CNC(=O)[C@H](Cc1ccccc1)NC(=O)[C@H](CC(N)=O)NC(=O)[C@@H]1CCCN1C(=O)[C@H](CO)NC(=O)[C@H](CO)NC(=O)[C@H](Cc1c[nH]cn1)NC(=O)[C@H](CCCNC(=N)N)NC(=O)[C@H](CC(C)C)NC(=O)[C@H](Cc1ccccc1)NC(=O)[C@H](CO)NC(=O)[C@H](C)NC(=O)[C@H](CC(C)C)NC(=O)[C@H](CCCNC(=N)N)NC(=O)[C@H](CCC(N)=O)NC(=O)[C@@H](NC(=O)[C@H](C)NC(=O)[C@@H]1CSSC[C@H](NC(=O)[C@@H](N)CCCCNC(=O)COCCOCCNC(=O)CC[C@H](NC(=O)CCCCCCCCCCCCCCCCCCC(=O)O)C(=O)O)C(=O)N[C@@H](CC(N)=O)C(=O)N[C@@H]([C@@H](C)O)C(=O)N[C@@H](C)C(=O)N[C@@H]([C@@H](C)O)C(=O)N1)[C@@H](C)O)C(=O)N1CCC[C@H]1C(=O)N[C@@H](CO)C(=O)N[C@@H](CO)C(=O)N[C@H](C(=O)N1CCC[C@H]1C(=O)N[C@H](C(=O)NCC(=O)N[C@@H](CO)C(=O)N[C@@H](CC(N)=O)C(=O)N[C@H](C(=O)N[C@@H](Cc1ccc(O)cc1)C(N)=O)[C@@H](C)O)C(C)C)[C@@H](C)O, also called compound 73)	5.38	51.7
K([AEEA-γGlu-C20 diacid])CNTATCATQRLAKFLRHSSPNFGAIPSSTPVGSNTY-NH2 (disulfide 2-7; N-terminus assumed; SMILES CC[C@H](C)[C@H](NC(=O)[C@H](C)NC(=O)CNC(=O)[C@H](Cc1ccccc1)NC(=O)[C@H](CC(N)=O)NC(=O)[C@@H]1CCCN1C(=O)[C@H](CO)NC(=O)[C@H](CO)NC(=O)[C@H](Cc1c[nH]cn1)NC(=O)[C@H](CCCNC(=N)N)NC(=O)[C@H](CC(C)C)NC(=O)[C@H](Cc1ccccc1)NC(=O)[C@H](CCCCN)NC(=O)[C@H](C)NC(=O)[C@H](CC(C)C)NC(=O)[C@H](CCCNC(=N)N)NC(=O)[C@H](CCC(N)=O)NC(=O)[C@@H](NC(=O)[C@H](C)NC(=O)[C@@H]1CSSC[C@H](NC(=O)[C@@H](N)CCCCNC(=O)COCCOCCNC(=O)CC[C@H](NC(=O)CCCCCCCCCCCCCCCCCCC(=O)O)C(=O)O)C(=O)N[C@@H](CC(N)=O)C(=O)N[C@@H]([C@@H](C)O)C(=O)N[C@@H](C)C(=O)N[C@@H]([C@@H](C)O)C(=O)N1)[C@@H](C)O)C(=O)N1CCC[C@H]1C(=O)N[C@@H](CO)C(=O)N[C@@H](CO)C(=O)N[C@H](C(=O)N1CCC[C@H]1C(=O)N[C@H](C(=O)NCC(=O)N[C@@H](CO)C(=O)N[C@@H](CC(N)=O)C(=O)N[C@H](C(=O)N[C@@H](Cc1ccc(O)cc1)C(N)=O)[C@@H](C)O)C(C)C)[C@@H](C)O, also called compound 74)	79.9	101
K([AEEA-γGlu-C20 diacid])CNTATCATQRLATFLRHSSPNFGAIPSSTPVGSNTY-NH2 (disulfide 2-7; N-terminus assumed; SMILES CC[C@H](C)[C@H](NC(=O)[C@H](C)NC(=O)CNC(=O)[C@H](Cc1ccccc1)NC(=O)[C@H](CC(N)=O)NC(=O)[C@@H]1CCCN1C(=O)[C@H](CO)NC(=O)[C@H](CO)NC(=O)[C@H](Cc1c[nH]cn1)NC(=O)[C@H](CCCNC(=N)N)NC(=O)[C@H](CC(C)C)NC(=O)[C@H](Cc1ccccc1)NC(=O)[C@@H](NC(=O)[C@H](C)NC(=O)[C@H](CC(C)C)NC(=O)[C@H](CCCNC(=N)N)NC(=O)[C@H](CCC(N)=O)NC(=O)[C@@H](NC(=O)[C@H](C)NC(=O)[C@@H]1CSSC[C@H](NC(=O)[C@@H](N)CCCCNC(=O)COCCOCCNC(=O)CC[C@H](NC(=O)CCCCCCCCCCCCCCCCCCC(=O)O)C(=O)O)C(=O)N[C@@H](CC(N)=O)C(=O)N[C@@H]([C@@H](C)O)C(=O)N[C@@H](C)C(=O)N[C@@H]([C@@H](C)O)C(=O)N1)[C@@H](C)O)[C@@H](C)O)C(=O)N1CCC[C@H]1C(=O)N[C@@H](CO)C(=O)N[C@@H](CO)C(=O)N[C@H](C(=O)N1CCC[C@H]1C(=O)N[C@H](C(=O)NCC(=O)N[C@@H](CO)C(=O)N[C@@H](CC(N)=O)C(=O)N[C@H](C(=O)N[C@@H](Cc1ccc(O)cc1)C(N)=O)[C@@H](C)O)C(C)C)[C@@H](C)O, also called compound 75)	60.9	91.4

The remaining binders from weak to strong by IC50 [1], led by results:

IC50 [1] [nM]	Ratio hCT/hAmylin binding [2]	Binder
17.8	101	K([γGlu-C20 diacid])CNTATCATQRLAAFLRHSSPNFGAIPSSTNVGHNTY-NH2 (disulfide 2-7; N-terminus assumed; SMILES CC[C@H](C)[C@H](NC(=O)[C@H](C)NC(=O)CNC(=O)[C@H](Cc1ccccc1)NC(=O)[C@H](CC(N)=O)NC(=O)[C@@H]1CCCN1C(=O)[C@H](CO)NC(=O)[C@H](CO)NC(=O)[C@H](Cc1c[nH]cn1)NC(=O)[C@H](CCCNC(=N)N)NC(=O)[C@H](CC(C)C)NC(=O)[C@H](Cc1ccccc1)NC(=O)[C@H](C)NC(=O)[C@H](C)NC(=O)[C@H](CC(C)C)NC(=O)[C@H](CCCNC(=N)N)NC(=O)[C@H](CCC(N)=O)NC(=O)[C@@H](NC(=O)[C@H](C)NC(=O)[C@@H]1CSSC[C@H](NC(=O)[C@@H](N)CCCCNC(=O)CC[C@H](NC(=O)CCCCCCCCCCCCCCCCCCC(=O)O)C(=O)O)C(=O)N[C@@H](CC(N)=O)C(=O)N[C@@H]([C@@H](C)O)C(=O)N[C@@H](C)C(=O)N[C@@H]([C@@H](C)O)C(=O)N1)[C@@H](C)O)C(=O)N1CCC[C@H]1C(=O)N[C@@H](CO)C(=O)N[C@@H](CO)C(=O)N[C@H](C(=O)N[C@@H](CC(N)=O)C(=O)N[C@H](C(=O)NCC(=O)N[C@@H](Cc1c[nH]cn1)C(=O)N[C@@H](CC(N)=O)C(=O)N[C@H](C(=O)N[C@@H](Cc1ccc(O)cc1)C(N)=O)[C@@H](C)O)C(C)C)[C@@H](C)O, also called compound 93)
6.86	46.3	K([γGlu-C20 diacid])CNTATCATQRLAAFLRHSSPNFGAIPSSTNVGPNTY-NH2 (disulfide 2-7; N-terminus assumed; SMILES CC[C@H](C)[C@H](NC(=O)[C@H](C)NC(=O)CNC(=O)[C@H](Cc1ccccc1)NC(=O)[C@H](CC(N)=O)NC(=O)[C@@H]1CCCN1C(=O)[C@H](CO)NC(=O)[C@H](CO)NC(=O)[C@H](Cc1c[nH]cn1)NC(=O)[C@H](CCCNC(=N)N)NC(=O)[C@H](CC(C)C)NC(=O)[C@H](Cc1ccccc1)NC(=O)[C@H](C)NC(=O)[C@H](C)NC(=O)[C@H](CC(C)C)NC(=O)[C@H](CCCNC(=N)N)NC(=O)[C@H](CCC(N)=O)NC(=O)[C@@H](NC(=O)[C@H](C)NC(=O)[C@@H]1CSSC[C@H](NC(=O)[C@@H](N)CCCCNC(=O)CC[C@H](NC(=O)CCCCCCCCCCCCCCCCCCC(=O)O)C(=O)O)C(=O)N[C@@H](CC(N)=O)C(=O)N[C@@H]([C@@H](C)O)C(=O)N[C@@H](C)C(=O)N[C@@H]([C@@H](C)O)C(=O)N1)[C@@H](C)O)C(=O)N1CCC[C@H]1C(=O)N[C@@H](CO)C(=O)N[C@@H](CO)C(=O)N[C@H](C(=O)N[C@@H](CC(N)=O)C(=O)N[C@H](C(=O)NCC(=O)N1CCC[C@H]1C(=O)N[C@@H](CC(N)=O)C(=O)N[C@H](C(=O)N[C@@H](Cc1ccc(O)cc1)C(N)=O)[C@@H](C)O)C(C)C)[C@@H](C)O, also called compound 94)
